We go through two variants from FireProtDB (doi:10.1093/hmg/ddv370).

To fix the notation:
B1: Guanylyl cyclase-activating protein 1, P43080 (parent)
chain: MGNVMEGKSVEELSSTECHQWYKKFMTECPSGQLTLYEFRQFFGLKNLSPSASQYVEQMFETFDFNKDGYIDFMEYVAALSLVLKGKVEQKLRWYFKLYDVDGNGCIDRDELLTIIQAIRAINPCSDTTMTAEEFTDTVFSKIDVNGDGELSLEEFIEGVQKDQMLLDTLTRSLDLTRIVRRLQNGEQDEEGADEAAEAAG

Variants of B1 are the subject of the first data set. As to conditions: Homo sapiens; pH 7.5; Thermal; CD; Tris-HCl; KCl; transition: 2; whole UniProt chain shown.
For the variant MGNVMEGKSVEELSSTECHQWYKKFMTECPSGQLTLYEFRQFFGLKNLSPSASQYVEQMFETFDFNKDGYIDFMEYVAALSLVFKGKVEQKLRWYFKLYDVDGNGCIDRDELLTIIQAIRAINPCSDTTMTAEEFTDTVFSKIDVNGDGELSLEEFIEGVQKDQMLLDTLTRSLDLTRIVRRLQNGEQDEEGADEAAEAAG [L84F], the “change of melting temperature, mutant - wild type (higher = more stable)” value (“change of melting temperature, mutant” below) is -9.3 °C.
In the case of MGNVMEGKSVEELSSTECHQWYKKFMTECPSGQLTLYEFRQFFGLKNLSPSASQYVEQMFETFDFNKDGYIDFMEYVAALSLVLKGKVEQKLRWYFKLYDVDGNGCTDRDELLTIIQAIRAINPCSDTTMTAEEFTDTVFSKIDVNGDGELSLEEFIEGVQKDQMLLDTLTRSLDLTRIVRRLQNGEQDEEGADEAAEAAG [I107T], the “change of melting temperature, mutant” value was -8.1 °C.

The data set is the same for the next values; noted with them: Homo sapiens; pH 7.5; Thermal; CD; Tris-HCl; KCl; transition: 3; whole UniProt chain shown.
Turning to MGNVMEGKSVEELSSTECHQWYKKFMTECPSGQLTLYEFRQFFGLKNLSPSASQYVEQMFETFDFNKDGYIDFMEYVAALSLVLKGKVEQKLRWYFKLYDVDGNGCTDRDELLTIIQAIRAINPCSDTTMTAEEFTDTVFSKIDVNGDGELSLEEFIEGVQKDQMLLDTLTRSLDLTRIVRRLQNGEQDEEGADEAAEAAG [I107T], the “change of melting temperature, mutant” value was -8.1 °C.
